Patent US20210220471A1, “METHODS OF USING PHARMACOLOGIC INHIBITORS OF TYPE 2 CYTOKINE SIGNALING TO TREAT OR PREVENT PANCREATIC CANCER” (Memorial Sloan Kettering Cancer Center, priority 2018, published 2021)
“Also recorded” adds a separate entry of the source.

Columns and labels:
[1] = tested on: mutant Kras pancreatic organoids; assay: Growth of mutant Kras pancreatic organoids with recombinant IL-4 / IL-13 (Cell Titer Glo); format: cell-based, mouse; settings: pre-malignant mutant Kras G12D; for proliferation (Cell Titer Glo): 6-day growth; for proliferation (Cell Titer Glo) after cytokine pre-treatment: pre-treatment with the cytokines during 2 weeks
Description: Isolation, culture and genetic manipulation of pancreatic organoids. To isolate untransformed ductal organoids for the transplantable PDAC tumorigenesis model, normal pancreas from LSL-KrasG12D mice (pure Bl/6N background) minced and digested with 0.012% collagenase XI (C9407, Sigma-Aldrich) and 0.012% Dispase (17105041, Life Technologies) in HBSS with Mg^2+ and Ca^2+ (14025076, Thermo Fisher Scientific) at 37° C. for a maximum of 30 mins. The material was further digested with TrypLE (GIBCO) for 5 min at 37° C., washed twice with DMEM/F12 (Life Technologies) supplemented with 2 mM glutamine and penn-strep, embedded in growth factor reduced matrigel (Corning), and cultured in complete medium, as described in Boj et al 2014. For activation of mutant Kras, organoids haroburing the LSL-KrasG12D allele were transduced with Ad-mCherry-Cre (Vector Biolabs), and Cherry^+ cells were sorted from single cell organoid suspension by flow cytometry 36h thereafter. Resulting clones were assessed for LSL-KrasG12D recombination by genotyping PCR in genomic DNA using the following primers: 5′ gtc ttt ccc cag cac agt gc 3′ (SEQ ID NO: 19), 5′ ctc ttg cct acg cca cca get c 3′ (SEQ ID NO: 20), and 5′ agc tag cca cca tgg ctt gag taa gtc tgc a 3′ (SEQ ID NO: 21). Validated Cre-recombined clones were then subjected to CRISPR-based inactivation of Trp53 using the PX458 vector (Addgene #48138) and gRNA […] sequence (SEQ ID NO: 22). PX458-sgTrp53 was transduced into organoids by transient transfection using the spinoculation method previously described (O'Rourke et al., 2017), with the modification of using the Effectene transfection reagent (Qiagen). PX458-sgTrp53 introduced cells were sorted by GFP positivity with flow cytometry 36h post-transfection. p53 null status of targeted clones was validated by western blot, using anti-p53 antibody (CMS, Leica Microsystem) and anti-β-actin-peroxidase antibody (Sigma-Aldrich) as normalization control.
This activation was specific (i.e. not observed for many other cytokine receptors, nor during normal pancreas regeneration) and is associated with the emergence of multiple de novo ATAC peaks (FIG. 14B). Preliminary gain-of-function experiments in mutant Kras pancreatic organoids indicate that these druggable Th2 cytokine receptors are functional and modulate organoid growth in vitro (FIG. 14C).

[2] = tested on: Kras-wild type (C-GEMM) mice; assay: Recombinant Il-33 treatment of Kras wild-type (C-GEMM) mice; format: in vivo, mouse; settings: 21 days after treatment; for pancreas histology (H&E, Alcian Blue): same dosing
Description: (§1) To compare the effects of tissue injury in the transcriptional and chromatin accessibility landscapes of mutant Kras-expressing or Kras wild-type pancreatic epithelial cells, KC;RIK (p48-Cre;RIK;LSLKrasG12D) or C;RIK (p48-Cre;RIK) male mice were treated with 8 hourly intraperitoneal injections of 80 μg/kg caerulein (Bachem) or PBS for 2 consecutive days, using littermates when possible. To characterize invasive disease, pancreatic ductal adenocarcinoma (PDAC) cells were isolated from cancer lesions arising in autochthonous transgenic models (KPflC;RIK (p48Cre;RIK;LSL-KrasG12D;p53fl/^+) that were macro-dissected away from pre-malignant tissue. As an orthogonal approach, C57Bl/6 female mice (Harlan) were subjected to for orthotopic transplantations with syngeneic ductal organoids harboruing mutant Kras and inactivated Trp53 gene (see below). Prior to transplantation, organoid cultures were dissociated with TrypLE (Gibco) after mechanical dissociation by pipetting and 1-2×10^5 cells in serum-free advanced DMEM/F12 (Life Technologies) supplemented with 2 mM glutamine and penn-strep were mixed 1:1 with growth factor reduced matrigel (Corning) and injected into the exposed pancreas of 8-10 weeks old C57B16/N mice using a Hamilton syringe fitted with a 26 gauge needle. For treatment with recombinant Il-33, 5 weeks-old C or KC mice were injected intraperitoneally once daily doses with 1 ug of murine recombinant Il-33 (#580504, R&D Systems) or vehicle (PBS) for 5 consecutive days.
(§2) Immunofluorescence, immunohistochemistry and histological analyses. Tissues were fixed overnight in 10% neutral buffered formalin (Richard-Allan Scientific), embedded in paraffin and cut into 5 μm sections. Slides were heated for 30 min at 55° C., deparaffinized, rehydrated with an alcohol series and subjected to antigen retrieval with citrate buffer (Vector Laboratories Unmasking Solution, H-3300) for 25 min in a pressure cooker set on high. Sections were treated with 3% H2O2 for 10 min followed by a wash in dionized water (for immunohistochemistry only), washed in PBS, then blocked in PBS/0.1% Triton X-100 containing 1% BSA. Primary antibodies were incubated overnight at 4° C. in blocking buffer. The following primary antibodies were used: mKate2 (Evrogen, AB233), GFP (ab13970, Abcam and 2956S, Cell Signaling Technology), Brd4 (HPA015055, Sigma-Aldrich), Myc (ab32072, Abcam), Cpa1 (R&D, AF2765), Clusterin (SCBT sc-6419), SOX9 (Millipore AB553), Amylase (sc-31869, Santa Cruz), Krt19 (Troma III, Developmental Studies Hybridoma Bank) and Il-33 (AF3626, R&D). For mKate2, GFP and cMyc immunohistochemistry, Vector ImmPress HRP kits and ImmPact DAB (Vector Laboratories) were used for secondary detection. […]

[3] = tested on: Kras mutant (KC-GEMM) mice; assay: Recombinant Il-33 treatment of Kras mutant (KC-GEMM) mice; format: in vivo, mouse; settings: for expression of cell fate / PanIN markers (Agr2, Muc6, Dclk1, Cpa1, Sox9) in mKate2+ pancreatic epithelial cells: KC mice, qRT-PCR, 21 days after treatment; for mutant KRAS-driven tumorigenesis / mucinous PanIN lesions (H&E, Alcian Blue, mKate2) / expansion of Dclk1+ cancer stem cells (Dclk1 immunofluorescence): KC-GEMM mice, 5 consecutive days; for mutant KRAS-driven tumorigenesis / mucinous PanIN lesions (H&E, Alcian Blue, mKate2): 1 ug/mouse i.p. once daily, analyzed 21 days thereafter, vs vehicle (PBS); for expansion of Dclk1+ cancer stem cells (Dclk1 immunofluorescence): 1 ug/mouse, day 21 post-treatment
Description: as §1
as §2, with “detection. Tissues were then counterstained with Haematoxylin or when indicated Alcian blue (pH 2.5) and 0.1% Nuclear Fast Red Solution, dehydrated and mounted with Permount (Fisher). The immunohistochemistry detection of Brd4 was performed at the Molecular Cytology Core Facility of Memorial Sloan Kettering Cancer Center using Discovery XT processor (Ventana Medical Systems-Roche). The tissue sections were blocked for 30 min in 10% normal goat serum, 2% BSA in PBS. A rabbit polyclonal anti-Brd4 antibody (HPA015055, Sigma-Aldrich) was used in 1 ug/ml (1:100) concentrations. The incubation with the primary antibody was done for 6 hours, followed by 60 minutes incubation with biotinylated goat anti-rabbit IgG (PK610, Vector labs) in 5.75 ug/mL concentration. Blocker D, Streptavidin-HRP and DAB detection kit (760-124, Ventana Medical Systems-Roche) were used according to the manufacturer instructions. Slides were counterstained with Hematoxylin (760-2021, Ventana), Bluing Reagent (760-2037, Ventana) and coverslipped with Permount (Fisher Scientific).” for “detection.”

Row | Molecule | proliferation (Cell Titer Glo) [1] | proliferation (Cell Titer Glo) after cytokine pre-treatment [1] | expression of cell fate / PanIN markers in mKate2+ pancreatic epithelial cells [2] | expression of cell fate / PanIN markers in mKate2+ pancreatic epithelial cells ([2]; listed as recombinant IL-33) | pancreas histology (H&E, Alcian Blue) [2] | pancreas histology (H&E, Alcian Blue) ([2]; listed as recombinant IL-33) | expression of cell fate / PanIN markers (Agr2, Muc6, Dclk1, Cpa1, Sox9) in mKate2+ pancreatic epithelial cells [3] | expression of cell fate / PanIN markers (Agr2, Muc6, Dclk1, Cpa1, Sox9) in mKate2+ pancreatic epithelial cells ([3]; listed as recombinant IL-33) | mutant KRAS-driven tumorigenesis / mucinous PanIN lesions (H&E, Alcian Blue, mKate2) [3] | mutant KRAS-driven tumorigenesis / mucinous PanIN lesions (H&E, Alcian Blue, mKate2) ([3]; listed as recombinant IL-33) | expansion of Dclk1+ cancer stem cells (Dclk1 immunofluorescence) ([3]; listed as Recombinant IL-33) | expansion of Dclk1+ cancer stem cells (Dclk1 immunofluorescence) ([3]; listed as recombinant IL-33)
1 | IL-13: recombinant IL-13 cytokine | pro-proliferative effects | further enhanced | – | – | – | – | – | – | – | – | – | –
2 | recombinant IL-4: recombinant IL-4 cytokine (protein, UniProt P05112 25-153, looked up) Interleukin-4: HKCDITLQEIIKTLNSLTEQKTLCTELTVTDIFAASKNTTEKETFCRAATVLRQFYSHHEKDTRCLGATAQQFHRHKQLIRFLKRLDRNLWGLAGLNSCPVKEANQSTLENFLERLKTIMREKYSKCSS | pro-proliferative effects | further enhanced | – | – | – | – | – | – | – | – | – | –
3 | rIl-33: murine recombinant Il-33 (#580504, R&D Systems) (protein, UniProt Q8BVZ5 1-266, looked up) Interleukin-33: MRPRMKYSNSKISPAKFSSTAGEALVPPCKIRRSQQKTKEFCHVYCMRLRSGLTIRKETSYFRKEPTKRYSLKSGTKHEENFSAYPRDSRKRSLLGSIQAFAASVDTLSIQGTSLLTQSPASLSTYNDQSVSFVLENGCYVINVDDSGKDQEQDQVLLRYYESPCPASQSGDGVDGKKLMVNMSPIKDTDIWLHANDKDYSVELQRGDVSPPEQAFFVLHKKSSDFVSFECKNLPGTYIGVKDNQLALVEEKDESCNNIMFKLSKI | – | – | no detectable effects | no effect | no detectable effects; also recorded: retain normal architecture | no effect | selective effects | accelerates mutant KRAS-driven tumorigenesis | sufficient to trigger many of the tumor-promoting outputs of injury in the mutant Kras setting; also recorded: accelerated ADR with development of mucinous lesions | promoted tumorigenesis; also recorded: accelerates mutant KRAS-driven tumorigenesis; also recorded: enhanced tumorigenesis | sufficient to drive expansion of Dclk1^+ cancer stem cells in vivo | cancer stem cell expansion
